According to publication PMC6614842 (Nucleic Acids Research, 2019):
Where a chain is given by its changes, count along the chain named. Like-named read-outs stand apart in the source and are kept apart here.

Assays:
[1] = biological target: Mature full-length TFAM (human mitochondrial transcription factor A, residues 43-246) (human) (UniProt Q00059); experiment: ITC
[2] = biological target: Mature full-length TFAM (human mitochondrial transcription factor A, residues 43-246) (human) (UniProt Q00059); experiment: AUC
[3] = biological target: Mature full-length TFAM (human mitochondrial transcription factor A, residues 43-246) (human) (UniProt Q00059); experiment: SEC-MALLS
[4] = biological target: Mature full-length TFAM (human mitochondrial transcription factor A, residues 43-246) (human) (UniProt Q00059); experiment: SEC-MALLS; remark: listed apart in the source
[5] = biological target: Mature full-length TFAM (human mitochondrial transcription factor A, residues 43-246) (human) (UniProt Q00059); experiment: AUC; remark: listed apart in the source
native gel or EMSA = biological target: the molecule itself; experiment: native gel or EMSA
TFAM WT (mature) [6] = biological target: T1, TFAM WT (mature) (Homo sapiens, UniProt Q00059 43-246); experiment: X-ray crystallography
T1 sequence: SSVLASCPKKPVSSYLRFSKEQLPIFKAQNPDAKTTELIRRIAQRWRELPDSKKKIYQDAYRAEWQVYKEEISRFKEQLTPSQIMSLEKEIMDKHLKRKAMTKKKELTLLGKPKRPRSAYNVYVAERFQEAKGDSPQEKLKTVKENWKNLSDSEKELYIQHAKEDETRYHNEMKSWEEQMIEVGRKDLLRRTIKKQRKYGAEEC

[7] = biological target: T2, TFAM-C49A, A488 at C-terminal Cys246 (Homo sapiens, UniProt Q00059 43-246, C49A); experiment: FRET
T2 sequence: T1 sequence with C7A

[8] = biological target: T2, TFAM-C49A, A488 at C-terminal Cys246; experiment: FRET; remark: listed apart in the source
TFAM WT (mature) [9] = biological target: T1, TFAM WT (mature); experiment: EMSA
[10] = biological target: T2, TFAM-C49A, A488 at C-terminal Cys246; experiment: FRET; remark: listed apart in the source
[11] = biological target: T2, TFAM-C49A, A488 at C-terminal Cys246; experiment: FRET; remark: listed apart in the source

Mature full-length TFAM (human mitochondrial transcription factor A, residues 43-246) (from UniProt Q00059 43-246) (natural protein)
stoichiometry N [1]: 2
stoichiometry N [2]: 2
stoichiometry N [3]: 2
stoichiometry N [4]: 2
stoichiometry N [5]: 2

B1: TFAM C-terminal tail deletion mutant (TFAM-CTΔ26) (domain or fragment, human, UniProt Q00059 43-220, looked up)
chain: SSVLASCPKKPVSSYLRFSKEQLPIFKAQNPDAKTTELIRRIAQRWRELPDSKKKIYQDAYRAEWQVYKEEISRFKEQLTPSQIMSLEKEIMDKHLKRKAMTKKKELTLLGKPKRPRSAYNVYVAERFQEAKGDSPQEKLKTVKENWKNLSDSEKELYIQHAKEDETRYHNEMKSWEE
binding result (native gel or EMSA): binds

B2: Site-YBr 22 (dsDNA)
DNA 1: TAACAATTGAATGTCTGCACAG
DNA 2: CTGTGCAGACATTCAATTGTTA
modifications: brominated at thymine positions (positions not given)
binding result (TFAM WT (mature) [6]): binds

B3: Site-X3* 28 (dsDNA)
DNA 1: TATCATAACAAAAAATTTCCACCAAACA
DNA 2: TGTTTGGTGGAAATTTTTTGTTATGATA
binding result [7]: binds

B4: Site-Y5* 28 (dsDNA)
DNA 1: TAGAGGCTGTGCAGACATTCAATTGTTA
DNA 2: TAACAATTGAATGTCTGCACAGCCTCTA
binding result [8]: binds

B5: Site-X 22 (dsDNA)
DNA 1: TAACAAAAAATTTCCACCAAAC
DNA 2: TTTGGTGGAAATTTTTTGTTAG
Kd (TFAM WT (mature) [9]): 13.6 ± 2.89 nM

B6: Site-X5* 28 (dsDNA)
DNA 1: TATCATAACAAAAAATTTCCACCAAACA
DNA 2: TGTTTGGTGGAAATTTTTTGTTATGATA
binding result [10]: binds

B7: Site-Y3* 28 (dsDNA)
DNA 1: TAGAGGCTGTGCAGACATTCAATTGTTA
DNA 2: TAACAATTGAATGTCTGCACAGCCTCTA
binding result [11]: binds
